Data reported in US20240132577A1 (US Dept. of Health and Human Services, published 2024).
Where “and” joins values, the source holds several entries; their conditions need not be identical. Identical values can stand only once. Like-named read-outs stand apart in the source and are kept apart here.

Tests used:
Assay in all cases: cell-based or functional assay
[1] = target: T1, SARS-CoV-2 S protein (C-terminally truncated, on pseudotyped virus) (SARS-CoV-2 (Wuhan-Hu-1), UniProt P0DTC2 14-1254)
[2] = target: T1, SARS-CoV-2 S protein (C-terminally …); remark: listed apart in the source
[3] = target: T1, SARS-CoV-2 S protein (C-terminally …); remark: listed apart in the source
[4] = target: SARS-CoV-2 S protein R683G (on pseudotyped virus) (SARS-CoV-2, UniProt P0DTC2 14-1254)
[5] = target: SARS-CoV-2 S protein K417N (on pseudotyped virus) (SARS-CoV-2, UniProt P0DTC2 14-1254)
[6] = target: SARS-CoV-2 S protein E484K (on pseudotyped virus) (SARS-CoV-2, UniProt P0DTC2 14-1254)
[7] = target: SARS-CoV-2 S protein N501Y (on pseudotyped virus) (SARS-CoV-2, UniProt P0DTC2 14-1254)
[8] = target: SARS-CoV-2 S protein K417N + E484K + N501Y (on pseudotyped virus) (SARS-CoV-2, UniProt P0DTC2 14-1254)

Binder | IC50 (pseudovirus neutralization) [1] | IC90 (pseudovirus neutralization) [1] | IC50 (pseudovirus neutralization) [2] | IC90 (pseudovirus neutralization) [2] | IC50 (variant pseudovirus neutralization) [3] [nM] | IC50 (variant pseudovirus neutralization) [4] [nM] | IC50 (variant pseudovirus neutralization) [5] [nM] | IC50 (variant pseudovirus neutralization) [6] [nM] | IC50 (variant pseudovirus neutralization) [7] [nM] | IC50 (variant pseudovirus neutralization) [8] [nM]
Nb43 (VHH) VHH: QVQLQESGGGLVQAGDSLKLSCAASGRTFSDSAMGWFRQAPGEEREFVAVITWNGGTTYYADSVKGRFTISRDDAKNTVYLQMNSLKPEDTAVYYCAADTSRWDYSLTYHYTREYNYWGQGTQVTVSS | 281 ng/ml and 20.9 nM | 5330 ng/ml and 395 nM | – | – | – | – | – | – | – | –
Nb7 (VHH) VHH: QVQLQESGGGLVQAGDSLRLSCLSSERTFRRYGIAWFRQAPGKEREFVAAVDRSHSQTNYADFVQGRFTISTVYAKNMVYLQMNSLKPEDTAVYYCAAASYEKGSDYTSWNTDRGYDYWGQGTQVTVSS | 43 ng/ml and 3.2 nM | 451 ng/ml and 33.4 nM | – | – | – | – | – | – | – | –
Nb15-tri-IgG1 (Fc fusion) QVQLQESGGGLVQAGGSLRVSCAASGLPFSDYLMGWFRQAPGKEREYVAAISQNGGHTYADSVLGRFTISRDNAKNTVYLQMNMLTPGDTAVYSCAARRPGGGRWDAAHDYNYWGQGTQVTVSSGGGGSGGGGSGGGGSQVQLQESGGGLVQAGGSLRVSCAASGLPFSDYLMGWFRQAPGKEREYVAAISQNGGHTYADSVLGRFTISRDNAKNTVYLQMNMLTPGDTAVYSCAARRPGGGRWDAAHDYNYWGQGTQVTVSSGGGGSGGGGSGGGGSQVQLQESGGGLVQAGGSLRVSCAASGLPFSDYLMGWFRQAPGKEREYVAAISQNGGHTYADSVLGRFTISRDNAKNTVYLQMNMLTPGDTAVYSCAARRPGGGRWDAAHDYNYWGQGTQVTVSSDKTHTCPPCPAPELLGGPSVFLFPPKPKDTLMISRTPEVTCVWDVSHEDPEVKFNWYVDGVEVHNAKTKPREEQYNSTYRWSVLTVLHQDWLNGKEYKCKVSNKALPAPIEKTISKAKGQPREPQVYTLPPSREEMTKNQVSLTCLVKGFYPSDIAVEWESNGQPENNYKTTPPVLDSDGSFFLYSKLTVDKSRWQQGNVFSCSVMHEALHNHYTQKSLSLSPGKHHHHHH | – | – | 10 ng/ml and 142 nM | 26.9 ng/ml and 381 nM | 0.073 | 0.013 | 0.027 | 0.041 | 0.021 | 0.03
Nb47 (VHH) VHH: QVQLQESGGGLVQAGGSLRLSCAASGRTLSRYSMSWFRQAPGKEREFVAGIRWSGSNTYYADSMKQRFTISQDNVKNTVHLQMNSLKPEDTAVYYCAATSRSDHYLNAVAWTLPNEYDYWGQGTQVTVSS | 731 ng/ml and 54.2 nM | > 10000 ng/ml and > 500 nM | – | – | – | – | – | – | – | –
Nb17-tri-IgG1 (Fc fusion) QVQLQESGGGLVQTGGSLRLSCAASGRTFGIYRMGWFRQAPGKEREFVAAITSSADTAQYRDSVKGRFAISRDNAKNTLYLQMNSLKPEDTAIYYCAARDPTTLEYGNWGQGTQVTVSSGGGGSGGGGSGGGGSQVQLQESGGGLVQTGGSLRLSCAASGRTFGIYRMGWFRQAPGKEREFVAAITSSADTAQYRDSVKGRFAISRDNAKNTLYLQMNSLKPEDTAIYYCAARDPTTLEYGNWGQGTQVTVSSGGGGSGGGGSGGGGSQVQLQESGGGLVQTGGSLRLSCAASGRTFGIYRMGWFRQAPGKEREFVAAITSSADTAQYRDSVKGRFAISRDNAKNTLYLQMNSLKPEDTAIYYCAARDPTTLEYGNWGQGTQVTVSSDKTHTCPPCPAPELLGGPSVFLFPPKPKDTLMISRTPEVTCVWDVSHEDPEVKFNWYVDGVEVHNAKTKPREEQYNSTYRWSVLTVLHQDWLNGKEYKCKVSNKALPAPIEKTISKAKGQPREPQVYTLPPSREEMTKNQVSLTCLVKGFYPSDIAVEWESNGQPENNYKTTPPVLDSDGSFFLYSKLTVDKSRWQQGNVFSCSVMHEALHNHYTQKSLSLSPGKHHHHHH | – | – | 1.24 ng/ml and 18 nM | 4.7 ng/ml and 68.2 nM | 0.015 | 0.004 | 0.008 | 50 | 0.01 | 47.4
msNb12-tri-IgG2a (Fc fusion) QVKLEESGGGSVQAGGSLRLICTAPGLTHNNCGLDWYRRAPGKEREFVSSISADGTTSYADSVKGRFTISKDKVEDTVYLQMNSLKPEDTAIYSCKTAFPYFGNSCVLDYWGQGTSVTVSSGGGGSGGGGSGGGGSQVKLEESGGGSVQAGGSLRLICTAPGLTHNNCGLDWYRRAPGKEREFVSSISADGTTSYADSVKGRFTISKDKVEDTVYLQMNSLKPEDTAIYSCKTAFPYFGNSCVLDYWGQGTSVTVSSGGGGSGGGGSGGGGSQVKLEESGGGSVQAGGSLRLICTAPGLTHNNCGLDWYRRAPGKEREFVSSISADGTTSYADSVKGRFTISKDKVEDTVYLQMNSLKPEDTAIYSCKTAFPYFGNSCVLDYWGQGTSVTVSSEPKIPQPQPKPQPQPQPQPKPQPKPEPECTCPKCPAPELLGGPSVFLFPPKPKDTLMISRTPEVTCVWDVSHEDPEVKFNWYVDGVEVHNAKTKPREEQYNSTYRWSVLTVLHQDWLNGKEYKCKVSNKALPAPIEKTISKAKGQPREPQVYTLPPSREEMTKNQVSLTCLVKGFYPSDIAVEWESNGQPENNYKTTPPVLDSDGSFFLYSKLTVDKSRWQQGNVFSCSVMHEALHNHYTQKSLSLSPGKHHHHHH | – | – | 4.71 ng/ml and 64.8 nM | 74 ng/ml and 1.02 µM | 0.091 | 0.178 | 0.068 | 0.149 | 0.082 | 0.09
mNb35 (VHH) VHH: QVQLVESGGGLVQAGGSLRLSCAASGRTFSKYAMGWFRQAPGKERKFVATISWSGDSAFYADSVKGRFTISRDNARNTVYLQMNSLKPEDTAVYYCTADRGMGYGDFMDYWGQGTSVTVSS | 209 ng/ml and 15.5 nM | 692 ng/ml and 51.3 nM | – | – | – | – | – | – | – | –
Nb6 (VHH) VHH: QVQLQESGGGLVQAGGSLRLSCAASGNIANSNSMAWWRQTPGNQHERVAIISHGVTNYADSVKGRFTVSRDNAKNTLYLQMNNLKPEDTAAYYCYADLFGNTYWGQGTQVTVSS | 141 ng/ml and 10.5 nM | 354 ng/ml and 26.3 nM | – | – | – | – | – | – | – | –
Nb19-tri-IgG1 (Fc fusion) QVQLQESGGGLVQAGGSLRLSCAASGSGFSIHAMGWYRQAPGKQREFVAVVGHKTNYADSVKGRFTISRDVGKNTVELQMNSLKVEDTAVYYCYCNTIVTMTGVPDAVWGQGTQVTVSSGGGGSGGGGSGGGGSQVQLQESGGGLVQAGGSLRLSCAASGSGFSIHAMGWYRQAPGKQREFVAVVGHKTNYADSVKGRFTISRDVGKNTVELQMNSLKVEDTAVYYCYCNTIVTMTGVPDAVWGQGTQVTVSSGGGGSGGGGSGGGGSQVQLQESGGGLVQAGGSLRLSCAASGSGFSIHAMGWYRQAPGKQREFVAVVGHKTNYADSVKGRFTISRDVGKNTVELQMNSLKVEDTAVYYCYCNTIVTMTGVPDAVWGQGTQVTVSSDKTHTCPPCPAPELLGGPSVFLFPPKPKDTLMISRTPEVTCVWDVSHEDPEVKFNWYVDGVEVHNAKTKPREEQYNSTYRWSVLTVLHQDWLNGKEYKCKVSNKALPAPIEKTISKAKGQPREPQVYTLPPSREEMTKNQVSLTCLVKGFYPSDIAVEWESNGQPENNYKTTPPVLDSDGSFFLYSKLTVDKSRWQQGNVFSCSVMHEALHNHYTQKSLSLSPGKHHHHHH | – | – | 0.65 ng/ml and 9.38 nM | 3.96 ng/ml and 57.6 nM | 0.012 | 0.003 | 0.006 | 0.095 | 0.01 | 0.115
Nb56-tri-IgG1 (Fc fusion) QVQLQESGGGLVQAGDSLRLSCVASERTFRRYGMGWFRQAPGKEREFVAAVDRSHTKTGYADFVKGRFTISTNYENMVYLQMNSLKPEDTAVYYCAAPSYEKGSDPTSWNTDRGYDYWGQGTQVTVSSGGGGSGGGGSGGGGSQVQLQESGGGLVQAGDSLRLSCVASERTFRRYGMGWFRQAPGKEREFVAAVDRSHTKTGYADFVKGRFTISTNYENMVYLQMNSLKPEDTAVYYCAAPSYEKGSDPTSWNTDRGYDYWGQGTQVTVSSGGGGSGGGGSGGGGSQVQLQESGGGLVQAGDSLRLSCVASERTFRRYGMGWFRQAPGKEREFVAAVDRSHTKTGYADFVKGRFTISTNYENMVYLQMNSLKPEDTAVYYCAAPSYEKGSDPTSWNTDRGYDYWGQGTQVTVSSDKTHTCPPCPAPELLGGPSVFLFPPKPKDTLMISRTPEVTCVWDVSHEDPEVKFNWYVDGVEVHNAKTKPREEQYNSTYRWSVLTVLHQDWLNGKEYKCKVSNKALPAPIEKTISKAKGQPREPQVYTLPPSREEMTKNQVSLTCLVKGFYPSDIAVEWESNGQPENNYKTTPPVLDSDGSFFLYSKLTVDKSRWQQGNVFSCSVMHEALHNHYTQKSLSLSPGKHHHHHH | – | – | 3.91 ng/ml and 54.5 nM | 18.6 ng/ml and 260 nM | 0.043 | 0.008 | 0.021 | 0.037 | 0.028 | 0.014
